Laboratory results: patent publication US12371675B2, “Process and microorganism for synthesis of adipic acid from carboxylic acids” (THE GOVERNING COUNCIL OF THE UNIVERSITY OF TORONTO, priority 2015, dated 2025)

Tests used:
[1] = substrate: CCCC=O; assay: AR kinetics, aldehyde reduction followed by NAD(P)H oxidation; format: biochemical, Thermotoga maritima; conditions: other: butyraldehyde, pH 7.5
Description: (§1) 28 aldehyde reductases from different bacteria were cloned and overexpressed in E. coli. Enzymes purified using affinity chromatography on Ni-NTA resin were screened for reductase activity with adipaldehyde and butyraldehyde in presence of both NADPH and NADH (Table 5). Butyraldehyde was used as a substrate substitute for 4-oxo-butanal, which is not commercially available. Reactions were followed spectrophotometrically, by cofactor oxidation at 340 nm.
(§2) Enzyme activity of purified ARs was measured spectrophotometrically in 96-well plates Reaction mixtures contained 100 mM HEPES buffer (pH 7.5), 0.4 mM NADH/NADPH, 10 mM adipaldehyde or butylaldehyde, and proteins (10 μg for adipaldehyde screen, 2 μg for butyraldehyde screen) in a final volume of 200 μL Reaction mixture for adipaldehyde screening contained 1.8% DMSO. Enzyme reactions were monitored by following the decrease in absorbance at 340 nm (ε340 nm=6,220/M·cm) due to oxidation of NAD(P)H to NAD(P)+.
(§3) ARs RHA1_ro05279, PA1146, SC00229, PP_3370 were characterised for saturation with adipaldehyde, PP_3370, PSPTO_2097, RHA1_ro05279, SC00229, TM_0111, PA1146 were characterised for butyraldehyde saturation (Table 10). […] For both substrates maximal kcat/Km with minimal Km values was shown by AR PP 3370 from Pseudomonas putida.

[2] = substrate: O=CCCCCC=O; assay: as above; format: biochemical, Pseudomonas putida; conditions: other: adipaldehyde, 1,8% DMSO, pH 7.5
Description: as §1, §2, §3

[3] = substrate: CCCC=O; assay: as above; format: biochemical, Pseudomonas putida; conditions: other: butyraldehyde, pH 7.5
Description: as §1, §2, §3

[4] = substrate: O=CCCCCC=O; assay: as above; format: biochemical, Streptomyces coelicolor; conditions: other: adipaldehyde; cofactor NADPH; 1,8% DMSO; pH 7.5
Description: as §1, §2, §3

[5] = substrate: CCCC=O; assay: as above; format: biochemical, Streptomyces coelicolor; conditions: other: butyraldehyde, pH 7.5
Description: as §1, §2, §3

[6] = substrate: O=C(O)/C=C/c1ccccc1; assay: Kinetics of purified EREDBC, NADH oxidation at 340 nm, anaerobic; format: biochemical, Bacillus coagulans 36D1; conditions: other: trans-cinnamic acid, pH 7.0, 30° C., anaerobic
Experimental: (§4) The C═C reducing activity of EREDs was examined. Enzyme activity of purified EREDs was measured spectrophotometrically in 96-well plates by following incubation for 3-5 min at 30° C. in the anaerobic chamber as described in M. Buhler, H. Simon, Hoppe-Seyler's Zeitschrift fur Physiologische Chemie 1982, 363, 609-625. Buffers and reagents were degassed and sparged with Ar. Reaction mixture contained potassium phosphate (100 mM and pH 7.0), NADH (0.5 mM), indicated substrates, and proteins (0.1-50 μg) in a final volume of 200 μL. Enzyme reactions were monitored by following the decrease in absorbance at 340 nm (ε340 nm=6,220/M·cm) due to oxidation of NADH to NAD+.
(§5) For in vitro biochemical characterization, enzyme activities of purified EREDs were measured with 2-hexenedioic acid, cis-cis-muconic acid, trans-trans muconic acid, trans-cinnamic acid, trans-2-methyl-2-butenoic acid, trans-2-butenoic acid, acrolein, 2-cyclohexen-1-one, and 3-methyl-2-cyclohexenone. […] [Feng, J. et al. Discovery and Characterization of BlsE, a Radical S-Adenosyl-L-methionine Decarboxylase Involved in the Blasticidin S Biosynthetic Pathway. PLoS ONE 8 (2013)].
(§6) Kinetic studies of purified EREDBC were performed using 2-hexenedioic acid, 2-cyclohexen-1-one, 3-methyl-2-cyclohexenone, and trans-cinnamic acid as substrates (FIG. 10).
(§7) To increase the dissolved substrate concentration, 2-hexenedioic acid was dissolved in a reaction mixture containing […] (final concentration) isopropanol, and kinetic constants of EREDBC and EREDCA were determined.

[7] = substrate: O=C(O)C=CCCC(=O)O; assay: as above; format: biochemical, Bacillus coagulans 36D1; conditions: other: 2-hexenedioic acid in 0.25 mM isopropanol, 2.5 to 35 mM, sigmoidal kinetics, pH 7.0, 30.0 °C
Experimental: as §4, §5, §6, §7

[8] = substrate: O=CCCCCC=O; assay: AT kinetics, coupled with alanine and glutamate dehydrogenases; format: biochemical, Escherichia coli; conditions: other: amino-donor Ala/Glu; pH 7.5
Experimental: (§8) 28 PLP-dependent aminotransferases (from the classes I, II and III) were cloned and overexpressed in E. coli (Table 6). Enzymes were purified using affinity chromatography on a Ni-NTA resin and were screened for […] activity towards adipaldehyde using alanine and glutamate as amino-donors. Enzyme activity was measured spectrophotometrically using a coupled reaction with the NADPH/NADH-dependent alanine and glutamate dehydrogenases in the presence of excess of ammonium chloride.
(§9) Reaction was monitored by following the decrease in absorbance of NAD(P)H to NAD(P)+ at 340 nm (ε340 nm=6,220/M·cm). Coupled enzymes can aminate pyruvate/ketoglutarate produced by ATs in excess of NH4Cl.

[9] = substrate: O=CCCCCC=O; assay: as above; format: biochemical, Streptomyces avermitilis; conditions: other: amino-donor Ala/Glu; pH 7.5
Experimental: as §8, §9

B1: Thermotoga maritima aldehyde reductase TM_0111, SEQ ID NO: 52 (Thermotoga maritima MSB8) (protein)
chain: MFKISFYLPTEIIFRVGAVDELEERAKKLGKKALIVTGRSSTKKTGLLQRVVDLLKKAGVESFVFDKIVPNPISDHVDEAAEIVRKEKIDFIIGLGGGSPIDSAKAISITAPNEGKFWDYVPVGGGKIPEKSIPVVAIPTTHGTGTEADPFAVITNPQTKEKVGIGYRNTFPVLSLVDPEVMKTLPKDQTAYTSMDAFYHAIEAFLNVNANPYSDVLALDAMKRIVTYLPVAYENGEDMEARTNLAWASTEAGITETLTGVIANHALEHGLSGFYPEITHGLGLCITGPYLFEYIFDHAYERLAIVGREVFGVYETDDRKAGRLAIKKLRDFQEMFGLNKRLSELGVKKEDIPKMAETGYRILNGVVVVTPGNLTAKDMEEIFNRCY
[1]; cofactor NADH
  Km: 1370 ± 310 µM
  kcat: 0.90 ± 0.05 s⁻¹
  kcat/Km: (6.57 ± 0.36) × ×10^2 M^−1 · s^−1
[1]; cofactor NADPH
  Km: 2720 ± 1390 µM
  kcat: 0.30 ± 0.06 s⁻¹
  kcat/Km: (1.10 ± 0.22) × ×10^2 M^−1 · s^−1

B2: Pseudomonas putida aldehyde reductase PP_3370, SEQ ID NO: 45 (Pseudomonas putida KT2440) (protein)
chain: MQYVKLGSTGLDISRLCLGCMTFGEPDAGTHPWTLGEDASRPIIRHAVEQGINFFDTANSYSAGTSEIILGKLLREFTRREETVIATKVFFPANMWEGASRPNEQGLSRKAIMANIDASLSRLGTDYVDLYQIHRWDYHTPIEETMEALHDVVKAGKARYIGASSMYAWQFAKAQQVAANHGWSRFVSMQNYLNLIYREEEREMIPLCLDQGVGLMPWSPMARGRLTRPHGQQTQRTRTDVSGQSFYEKTEVEDGRVIDVVEQIASERGVPMAQVALAWVLGRAGVSAPIVGASKPAHLDDALGALSLQLSEDEVARLQAPYVPHAVTGFK
[2]; cofactor NADH
  Km: 4780 ± 490 µM
  kcat: 1.74 ± 0.08 s⁻¹
  kcat/Km: (3.64 ± 0.16) × ×10^2 M^−1 · s^−1
[2]; cofactor NADPH
  Km: 290 ± 20 µM
  kcat: 6.03 ± 0.25 s⁻¹
  kcat/Km: 2.08±0.09 ×10^4 M^−1 · s^−1
[3]; cofactor NADH
  Km: 16100 ± 1890 µM
  kcat: 10.7 ± 0.73 s⁻¹
  kcat/Km: (6.64 ± 0.45) × ×10^2 M^−1 · s^−1
[3]; cofactor NADPH
  Km: 1530 ± 110 µM
  kcat: 8.54 ± 0.22 s⁻¹
  kcat/Km: 5.58±0.14 ×10^3 M^−1 · s^−1

B3: Streptomyces coelicolor aldehyde reductase SCO0229, SEQ ID NO: 50 (Streptomyces coelicolor A3(2)) (protein)
chain: MQRQNWLITGVSTGLGRAFAQAALSAGHTVVGTVRSENDVRAFEELGPGHAHGRILDVTDGGAVNGVVAEVERSVGPLDVVVANAGYGLEGTFEETPLAEVRRQFDVNVFGAMATLQAALPHMRARRRGHLMAVTSMGGLMAVPGMSAYCGSKFALEGILEALGKEVAQFGIHVTAIEPGSFRTDWAGRSMTRAARTVADYDDLFAPIREARQKASGNQLGNPAKAGEAVVHITSVDQPPAHLVLGSDALRLVTAARTAVDEDIRAWEALSRTTDFPQGAQL
[4]
  Km: 8480 ± 580 µM
  kcat: 3.79 ± 0.10 s⁻¹
  kcat/Km: (4.47 ± 0.12) × ×10^2 M^−1 · s^−1
[5]; cofactor NADH
  Km: 6560 ± 2540 µM
  kcat: 0.90 ± 0.05 s⁻¹
  kcat/Km: (1.07 ± 0.18) × ×10^2 M^−1 · s^−1
[5]; cofactor NADPH
  Km: 35700 ± 10500 µM
  kcat: 21.9 ± 4.69 s⁻¹
  kcat/Km: (6.15 ± 1.31) × ×10^2 M^−1 · s^−1

B4: Bacillus coagulans 36D1 2-enoate reductase EREDBC, SEQ ID NO: 1 (Heyndrickxia coagulans) (protein)
chain: MKYKKLFETVKIRNVELKNRYAMAPMGPLGLADAEGGFNQRGIEYYTARARGGTALIITGVTFVDNEVEEHGMPNVPCPTHNPVHFVRTSKEMTERIHAYDSKIFLQMSAGFGRVTIPTNLGEYPPVAPSPIPHRWLDKTCRELTVEEIHSIVRKFGDGAFNAKRAGFDGVQIHAVHEGYLLDQFAIAFFNKRTDAYGGPLENRLRFAREIVEEIKQRCGEDFPVTLRFSPKSFIKDWREGALPGEEFEEKGRDLDEGIEAAKLLVSYGYDALDVDVGSYDSWWWSHPPMYQKKGLYIPYARLVKEAVDVPVLCAGRMDNPDLALAALEDGACDIISLGRPLLADPDYVNKLRIGQVADIRPCLSCHEGCMGRIQEYSSLGCAVNPAACREKEAALTPALKKKRVLIAGGGVAGCEAARVLALRGHEPVIFEKSNRLGGNLIPGGAPDFKEDDLALVAWYEHTLERLGVEIHLNTALTKEEILAANVDAVLIATGSNPKILPLDGKNKVFTAEDVLLDKVDAGQHVVIVGGGLVGCELALNLAEKGKDVSLVEMQDKLLAVNGPLCHANSDMLERLVPFKGVQVYTSSKIVDTTEKTAVVDVDGELREIEADSIVLAVGYSAEKSLYEDLKFEVADLHVVGDARKVANIMYAIWDAYEVAANL
[6]
  Km: 510 µM
  kcat: 0.50 s⁻¹
[7]
  Km: 18900 µM

B5: Escherichia coli aminotransferase gabT, SEQ ID NO: 53 (Escherichia coli K-12) (protein)
chain: MNSNKELMQRRSQAIPRGVGQIHPIFADRAENCRVWDVEGREYLDFAGGIAVLNTGHLHPKVVAAVEAQLKKLSHTCFQVLAYEPYLELCEIMNQKVPGDFAKKTLLVTTGSEAVENAVKIARAATKRSGTIAFSGAYHGRTHYTLALTGKVNPYSAGMGLMPGHVYRALYPCPLHGISEDDAIASIHRIFKNDAAPEDIAAIVIEPVQGEGGFYASSPAFMQRLRALCDEHGIMLIADEVQSGAGRTGTLFAMEQMGVAPDLTTFAKSIAGGFPLAGVTGRAEVMDAVAPGGLGGTYAGNPIACVAALEVLKVFEQENLLQKANDLGQKLKDGLLAIAEKHPEIGDVRGLGAMIAIELFEDGDHNKPDAKLTAEIVARARDKGLILLSCGPYYNVLRILVPLTIEDAQIRQGLEIISQCFDEAKQ
notes: 6His-tag (N); made in house; host or cells: E. coli BL21 (DE3)
[8]
  Km: 670 ± 70 µM
  kcat: 0.61 ± 0.02 s⁻¹
  kcat/Km: 9.22±0.27 ×10^2 M^−1 · s^−1

B6: Streptomyces avermitilis aminotransferase SAV2583, SEQ ID NO: 55 (Streptomyces avermitilis MA-4680 = NBRC 14893) (protein)
chain: MSALPQERRVVTAIPGPKSQELQARRTAVVAAGVGSVLPVFTTRAGGGIIEDVDGNRLIDFGSGIAVTSVGASAEAVVRRASAQLQDFTHTCFMVTPYEGYVAVAEALAELTPGDHAKKSALFNSGAEAVENAVKIARAYTKRQAVVVFDHGYHGRTNLTMALTAKNMPYKNGFGPFAPEVYRVPVAYGYRWLTGPENAGAEASAQAIDMINKQIGADNVAAIIIEPVLGEGGFIEPAKGFLPAISKFAKDNGIVFVADEIQSGFCRTGQWFACEDEGIVPDLITTAKGIAGGLPLAAVTGRAEIMDAAHAGGLGGTYGGNPVACAGALGAIETMKELDLNAKAKNIEAVMKARLGAMAEKFDIIGDVRGRGGMIAIELVKDRDTKEPNPEAAGALAKACHQEGLLVLTCGTYGNVLRFLPPLVIGEDLLNEGLDIIEQAFSRI
[9]
  Km: 1350 ± 190 µM
  kcat: 0.39 ± 0.02 s⁻¹
  kcat/Km: (2.90 ± 0.13) × ×10^2 M^−1 · s^−1
